Results from article PMC10070764, “S100B chaperone multimers suppress the formation of oligomers during Aβ42 aggregation” (Frontiers in Neuroscience, 2023).

Assays:
[1] = target: amyloid-β 1–42 (Aβ42) peptide (UniProt P05067 672-713); assay: cell-based or functional assay
[2] = target: the molecule itself; assay: SEC + other: electrophoresis; oligomeric state validation of the purified S100B dimer and tetramer preparations, as described (Figueira et al., 2022); conditions not given

Chain of amyloid-β 1–42 (Aβ42) peptide (P05067 672-713): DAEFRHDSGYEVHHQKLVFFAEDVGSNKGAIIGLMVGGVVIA

Binder | ThT-subtracted X-34 kinetic traces of Aβ42 (2 μM) aggregation: X-34 positive AβO relative to Aβ42 alone, apo-S100B tetramer:Aβ42 ratios up to 0.5 (effect already at 0.25) [1] | stoichiometry N [2]
tetrameric S100B (natural protein, human, UniProt P04271 1-92, looked up, Same chain as m1, isolated as the tetramer; used in the aggregation assays in the Ca^2+-free (apo) state (1.1 mM EDTA); also called apo-S100B tetramer; tetrameric apo-S100B; source: E. coli BL21 (DE3) E. Cline Express, purified to homogeneity) MSELEKAMVALIDVFHQYSGREGDKHKLKKSELKELINNELSHFLEEIKEQEVVDKVMETLDNDGDGECDFQEFMAFVAMVTTACHEFFEHE | 25% | 4
dimeric S100B (natural protein, human, UniProt P04271 1-92, looked up, also called S100B-Ca^2+ dimer; dimeric S100B-Ca^2+; source: E. coli BL21 (DE3) E. Cline Express, purified to homogeneity) MSELEKAMVALIDVFHQYSGREGDKHKLKKSELKELINNELSHFLEEIKEQEVVDKVMETLDNDGDGECDFQEFMAFVAMVTTACHEFFEHE |  | 2
